Where no end group is shown, it is not given here. [ ]: non-standard residue; d: D form. pT = C[C@@H](OP(=O)(O)O)[C@H](N)C(=O)O

One test deals with T1, HLA-A*02:01 (human).
T1 construct: MHC class I monomer in the UV-ligand exchange assay, captured on streptavidin plates; also called peptide-receptive MHC molecules
Kind of test: UV-ligand exchange, anti-β2m ELISA; grade of peptide exchange yield (legend: ≥20% = ++). An excerpt:
(§1) Candidate peptides for T cell based therapies according to the present invention were further tested for their MHC binding capacity (affinity). The individual peptide-MHC complexes were produced by UV-ligand exchange, where a UV-sensitive peptide is cleaved upon UV-irradiation, and exchanged with the peptide of interest as analyzed. Only peptide candidates that can effectively bind and stabilize the peptide-receptive MHC molecules prevent dissociation of the MHC complexes. To determine the yield of the exchange reaction, an ELISA was performed based on the detection of the light chain (β2m) of stabilized MHC complexes. The assay was performed as generally described in Rodenko et al. (Rodenko et al., 2006).
(§2) 96 well MAXISorp plates (NUNC) were coated over night with 2 ug/ml streptavidin in PBS at room temperature, washed 4× and blocked for 1 h at 37° C. in 2% BSA containing blocking buffer. Refolded HLA-A*02:01/MLA-001 monomers served as standards, cov-ering the range of 15-500 ng/ml. Peptide-MHC monomers of the UV-exchange reaction were diluted 100-fold in blocking buffer. Samples were incubated for 1 h at 37° C., washed four times, incubated with 2 ug/ml HRP conjugated anti-β2m for 1 h at 37° C., washed again and detected with TMB solution that is stopped with NH2SO4. Absorp-tion was measured at 450 nm. Candidate peptides that show a high exchange yield (preferably higher than 50%, most preferred higher than 75%) are generally preferred for a generation and production of antibodies or fragments thereof, and/or T cell receptors or fragments thereof, as they show sufficient avidity to the MHC molecules and prevent dissociation of the MHC complexes.
Consider ILTELPPGV [ILTELPPGV (SEQ ID NO: 33, ZNF407)], for which the peptide exchange yield fell in the range of 20 to 50%. Still for that read-out and setting: with KLYEGIPVL [KLYEGIPVL (SEQ ID NO: 13, NEK10)] the figure was 20 to 50%; with TIASSIEKA [TIASSIEKA (SEQ ID NO: 17, STPG2)], 20 to 50%; with GLLPTSVSPRV [GLLPTSVSPRV (SEQ ID NO: 11, SCUBE2)], 20 to 50%.

For the molecule KAFPFYNTV [KAFPFYNTV (SEQ ID NO: 12, NAIP)], the peptide exchange yield is 20 to 50%.

The molecule GLSYIYNTV [GLSYIYNTV (SEQ ID NO: 31, COG6)] displayed a peptide exchange yield of 20 to 50%.

As for ILFDVVVFL [ILFDVVVFL (SEQ ID NO: 25, C4orf3)], the peptide exchange yield was 20 to 50%. Regarding ALNPVIYTV [ALNPVIYTV (SEQ ID NO: 5, DRD4)], the peptide exchange yield was 20 to 50%. On to SLVEGEAVHLA [SLVEGEAVHLA (SEQ ID NO: 4, TFAP2E, TFAP2A, TFAP2B, TFAP2C)], for which the peptide exchange yield lay within 20 to 50%.

In turn, ALEEQLHQV [ALEEQLHQV (SEQ ID NO: 19, KRT25, KRT28, KRT27)] yielded a peptide exchange yield of 20 to 50%. Still for that read-out and setting: with FLSSEAANV [FLSSEAANV (SEQ ID NO: 30, TNFAIP2)] the figure was 20 to 50%.

The next test concerns the target T1, HLA-A*02:01. Briefly: UV-ligand exchange, anti-β2m ELISA; grade of peptide exchange yield (legend: ≥50 = +++).
Text: as §1, §2
KMPEHISTV [KMPEHISTV (SEQ ID NO: 1, CILP)] came in with a peptide exchange yield of 50 to 75%. With YILLQSPQL [YILLQSPQL (SEQ ID NO: 18, MUC6)], the peptide exchange yield was 50 to 75%. Same read-out and setting: as for GLHSLPPEV [GLHSLPPEV (SEQ ID NO: 10, LRRC8E)], the figure is 50 to 75%; as for ALAGSSPQV [ALAGSSPQV (SEQ ID NO: 2, CNTD2)], 50 to 75%. Still for that read-out and setting: with FMSKLVPAI [FMSKLVPAI (SEQ ID NO: 9, TPRG1)] the figure was 50 to 75%; with SLLTEPALV [SLLTEPALV (SEQ ID NO: 21, TBC1D9)], 50 to 75%. Turning to ALEA[pT]QLYL [ALEAUQLYL (SEQ ID NO: 29, DEPDC4)], the peptide exchange yield was 50 to 75%. On to KQLELELEV [KQLELELEV (SEQ ID NO: 14, MUC6)], for which the peptide exchange yield lay within 50 to 75%. Same read-out and setting: with ALTALQNYL [ALTALQNYL (SEQ ID NO: 6, TFAP2B)] the figure was 50 to 75%. In turn, SLADAVEKV [SLADAVEKV (SEQ ID NO: 23, CCDC122)] returned a peptide exchange yield of 50 to 75%. Regarding SLNDQGYLL [SLNDQGYLL (SEQ ID NO: 41, MCM8)], the peptide exchange yield lay in the range of 50 to 75%. Still for that read-out and setting: with FLDEEVKLI [FLDEEVKLI (SEQ ID NO: 43, FTL)] the figure was 50 to 75%; with FSFPVSVGV [FSFPVSVGV (SEQ ID NO: 20, DUSP4)], 50 to 75%; with SLFPSLVVV [SLFPSLVVV (SEQ ID NO: 15, PLEC)], 50 to 75%. Molecule YIDGLESRV [YIDGLESRV (SEQ ID NO: 22, CREB3L4)] came in with a peptide exchange yield of 50 to 75%. The same measure, in the same setting: with SLAWDVPAA [SLAWDVPAA (SEQ ID NO: 26, FASN)] the figure was 50 to 75%; with GLVATLQSL [GLVATLQSL (SEQ ID NO: 32, IFI6)], 50 to 75%. Turning to SLAEPRVSV [SLAEPRVSV (SEQ ID NO: 27, FASN)], the peptide exchange yield is 50 to 75%.

For the next test, the target named is T1, HLA-A*02:01. Briefly: UV-ligand exchange, anti-β2m ELISA; grade of peptide exchange yield (legend: ≥75% = ++++).
Text: as §1, §2
On the technique in general: ELISA stands for enzyme-linked immunosorbent assay.
Turning to SMMGLLTNL [SMMGLLTNL (SEQ ID NO: 16, ESR1)], the peptide exchange yield is at least 75%. The molecule FIIPTVATA [FIIPTVATA (SEQ ID NO: 7, ABCC11)] gave a peptide exchange yield of at least 75%. On the same count and under the same terms, with TLLGLAVNV [TLLGLAVNV (SEQ ID NO: 36, CHPT1)] the figure was at least 75%. Molecule GLVQSLTSI [GLVQSLTSI (SEQ ID NO: 8, ABCC11)] displayed a peptide exchange yield of at least 75%. SLLSEIQAL [SLLSEIQAL (SEQ ID NO: 35, AKAP9, PCNT)] had a peptide exchange yield of at least 75%. The same measure, in the same setting: with KLLDMELEM [KLLDMELEM (SEQ ID NO: 39, FAH)] the figure was at least 75%; with GLLGFQAEA [GLLGFQAEA (SEQ ID NO: 24, MAGED1)], at least 75%; with SLFSVPFFL [SLFSVPFFL (SEQ ID NO: 28, TM9SF1)], at least 75%. On the same count and under the same terms, as for FLVEHVLTL [FLVEHVLTL (SEQ ID NO: 42, SLC39A6)], the figure is at least 75%; as for LLM[pT]VAGLKL [LLMUVAGLKL (SEQ ID NO: 38, PCNXL3)], at least 75%.

For the origin of these results see patent US20190060431A1 (IMMATICS BIOTECHNOLOGIES, published 2019).
